Test results taken from patent EP4745153A1, “GLP-1, GIP AND GCG RECEPTOR […] USE THEREOF” (Jiangsu Hengrui Pharmaceuticals Co., Ltd., priority 2023, dated 2025).
Where two headings read alike, the source gives them in different places. Starred links: 1 amine or outer side, 2 acyl side, 3 side chain; linkers in the order of their positions; H or OH if unused. Non-standard residues stand in square brackets, D forms with d. Groups on a side chain read outwards from the residue. No end group written: not given here. *: point of attachment. C20 diacid = O=C(O)CCCCCCCCCCCCCCCCCCC(=O)*; γGlu = O=C(O)[C@H](CCC(=O)[*:2])N[*:1]; αMeL = CC(C)C[C@](C)(N)C(=O)O; αMeK = C[C@](N)(CCCCN)C(=O)O; Iva = CC[C@](C)(N)C(=O)O; Ac4c = NC1(C(=O)O)CCC1; AEEA = NCCOCCOCC(=O)O; Aib = CC(C)(N)C(=O)O

Legend:
Test in all cases: cell-based or functional assay
[1] = biological target: T1, human glucose-dependent insulinotropic polypeptide receptor (human, UniProt P48546 22-466)
T1 sequence (looked up): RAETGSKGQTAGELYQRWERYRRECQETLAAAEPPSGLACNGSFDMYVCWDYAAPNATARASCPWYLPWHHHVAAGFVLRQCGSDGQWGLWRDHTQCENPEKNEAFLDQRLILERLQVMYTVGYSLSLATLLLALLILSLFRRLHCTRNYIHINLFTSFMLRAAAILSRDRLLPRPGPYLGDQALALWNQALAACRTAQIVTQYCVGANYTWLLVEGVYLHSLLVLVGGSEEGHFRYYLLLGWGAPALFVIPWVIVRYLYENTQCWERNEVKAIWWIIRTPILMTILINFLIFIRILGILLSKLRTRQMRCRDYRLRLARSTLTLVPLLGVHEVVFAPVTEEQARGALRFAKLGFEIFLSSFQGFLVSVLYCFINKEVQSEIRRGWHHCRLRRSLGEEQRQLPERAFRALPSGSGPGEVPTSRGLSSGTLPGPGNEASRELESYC

[2] = biological target: T2, human glucagon-like peptide-1 receptor (human, UniProt P43220 24-463)
human glucagon receptor [3] = biological target: T3, human glucagon receptor (human, UniProt P47871 26-477)
[4] = biological target: T1, human glucose-dependent insulinotropic …; remark: listed apart in the source
human glucagon receptor [5] = biological target: T3, human glucagon receptor; remark: listed apart in the source
[6] = biological target: T1, human glucose-dependent insulinotropic …; remark: listed apart in the source
human glucagon receptor [7] = biological target: T3, human glucagon receptor; remark: listed apart in the source
[8] = biological target: T1, human glucose-dependent insulinotropic …; remark: listed apart in the source
[9] = biological target: T2, human glucagon-like peptide-1 receptor; remark: listed apart in the source
[10] = biological target: T1, human glucose-dependent insulinotropic …; remark: listed apart in the source
human glucagon receptor [11] = biological target: T3, human glucagon receptor; remark: listed apart in the source
[12] = biological target: T2, human glucagon-like peptide-1 receptor; remark: listed apart in the source
human glucagon receptor [13] = biological target: T3, human glucagon receptor; remark: listed apart in the source

T3 sequence (P47871 26-477): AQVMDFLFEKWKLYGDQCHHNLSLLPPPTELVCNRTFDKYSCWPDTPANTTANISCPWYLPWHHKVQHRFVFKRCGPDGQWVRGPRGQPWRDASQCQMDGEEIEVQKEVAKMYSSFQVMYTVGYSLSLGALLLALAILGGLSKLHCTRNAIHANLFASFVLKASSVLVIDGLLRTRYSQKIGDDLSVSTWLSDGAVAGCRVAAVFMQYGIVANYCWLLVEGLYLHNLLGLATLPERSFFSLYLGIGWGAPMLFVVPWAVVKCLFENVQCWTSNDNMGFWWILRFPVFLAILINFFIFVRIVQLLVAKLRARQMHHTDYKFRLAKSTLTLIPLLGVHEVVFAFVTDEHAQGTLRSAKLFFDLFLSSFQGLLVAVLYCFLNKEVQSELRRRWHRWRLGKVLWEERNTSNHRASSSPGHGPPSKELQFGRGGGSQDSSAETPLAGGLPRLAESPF

B1: Compound No. 0150 (peptide)
peptide: H[Aib]HGTFTSDYSILLEK([AEEA-AEEA-γGlu-C20 diacid])QAA[Ac4c]EFVEWLLA[dE]GPSSGAPPPS-NH2
modifications: N-terminus assumed
SMILES: CC[C@H](C)[C@H](NC(=O)[C@H](CO)NC(=O)[C@H](Cc1ccc(O)cc1)NC(=O)[C@H](CC(=O)O)NC(=O)[C@H](CO)NC(=O)[C@@H](NC(=O)[C@H](Cc1ccccc1)NC(=O)[C@@H](NC(=O)CNC(=O)[C@H](Cc1c[nH]cn1)NC(=O)C(C)(C)NC(=O)[C@@H](N)Cc1c[nH]cn1)[C@@H](C)O)[C@@H](C)O)C(=O)N[C@@H](CC(C)C)C(=O)N[C@@H](CC(C)C)C(=O)N[C@@H](CCC(=O)O)C(=O)N[C@@H](CCCCNC(=O)COCCOCCNC(=O)COCCOCCNC(=O)CC[C@H](NC(=O)CCCCCCCCCCCCCCCCCCC(=O)O)C(=O)O)C(=O)N[C@@H](CCC(N)=O)C(=O)N[C@@H](C)C(=O)N[C@@H](C)C(=O)NC1(C(=O)N[C@@H](CCC(=O)O)C(=O)N[C@@H](Cc2ccccc2)C(=O)N[C@H](C(=O)N[C@@H](CCC(=O)O)C(=O)N[C@@H](Cc2c[nH]c3ccccc23)C(=O)N[C@@H](CC(C)C)C(=O)N[C@@H](CC(C)C)C(=O)N[C@@H](C)C(=O)N[C@H](CCC(=O)O)C(=O)NCC(=O)N2CCC[C@H]2C(=O)N[C@@H](CO)C(=O)N[C@@H](CO)C(=O)NCC(=O)N[C@@H](C)C(=O)N2CCC[C@H]2C(=O)N2CCC[C@H]2C(=O)N2CCC[C@H]2C(=O)N[C@@H](CO)C(N)=O)C(C)C)CCC1
In the case of B1, the “Activity against human GIPR (EC50 nM)” value [1] is reported as 0.002 nM, the “Activity against human GLP-1R (EC50 nM)” value [2] is reported as 0.076 nM and the “Activity against human GCGR (EC50 nM)” value (human glucagon receptor [3]) is reported as 0.076 nM.

For H[Aib]HGTFTSDYS[αMeK]YLEK([AEEA-AEEA-γGlu-C20 diacid])KAQQEFVEWLLAGGPSSGAPPPS-NH2 [Compound No. 0113], the “Activity against human GIPR (EC50 nM)” value [4] was 0.015 nM and the “Activity against human GCGR (EC50 nM)” value (human glucagon receptor [5]) was 5.91 nM.

For H[Aib]QGTFTSDYSILLEK([AEEA-AEEA-γGlu-C20 diacid])KAA[Aib]EFVEWLLAGGPSSGAPPPS-NH2 [Compound No. 0156], the “Activity against human GIPR (EC50 nM)” value [6] was 0.019 nM and the “Activity against human GCGR (EC50 nM)” value (human glucagon receptor [7]) was 0.566 nM.

For H[Aib]HGTFTSDYS[αMeK]LLEK([AEEA-AEEA-γGlu-C20 diacid])QAA[Iva]EFVEWLLAGGPSSGAPPPS-NH2 [Compound No. 0128], the “Activity against human GIPR (EC50 nM)” value [8] was 0.0005 nM and the “Activity against human GLP-1R (EC50 nM)” value [9] was 0.04 nM.

B2: Compound No. 0111 (peptide)
peptide: H[Aib]HGTFTSDYS[αMeK]YLEK([AEEA-AEEA-γGlu-C20 diacid])KAAQEFVEWLIAGGPSSGAPPPS-NH2
modifications: N-terminus assumed
SMILES: CC[C@H](C)[C@H](NC(=O)[C@H](CC(C)C)NC(=O)[C@H](Cc1c[nH]c2ccccc12)NC(=O)[C@H](CCC(=O)O)NC(=O)[C@@H](NC(=O)[C@H](Cc1ccccc1)NC(=O)[C@H](CCC(=O)O)NC(=O)[C@H](CCC(N)=O)NC(=O)[C@H](C)NC(=O)[C@H](C)NC(=O)[C@H](CCCCN)NC(=O)[C@H](CCCCNC(=O)COCCOCCNC(=O)COCCOCCNC(=O)CC[C@H](NC(=O)CCCCCCCCCCCCCCCCCCC(=O)O)C(=O)O)NC(=O)[C@H](CCC(=O)O)NC(=O)[C@H](CC(C)C)NC(=O)[C@H](Cc1ccc(O)cc1)NC(=O)[C@](C)(CCCCN)NC(=O)[C@H](CO)NC(=O)[C@H](Cc1ccc(O)cc1)NC(=O)[C@H](CC(=O)O)NC(=O)[C@H](CO)NC(=O)[C@@H](NC(=O)[C@H](Cc1ccccc1)NC(=O)[C@@H](NC(=O)CNC(=O)[C@H](Cc1c[nH]cn1)NC(=O)C(C)(C)NC(=O)[C@@H](N)Cc1c[nH]cn1)[C@@H](C)O)[C@@H](C)O)C(C)C)C(=O)N[C@@H](C)C(=O)NCC(=O)NCC(=O)N1CCC[C@H]1C(=O)N[C@@H](CO)C(=O)N[C@@H](CO)C(=O)NCC(=O)N[C@@H](C)C(=O)N1CCC[C@H]1C(=O)N1CCC[C@H]1C(=O)N1CCC[C@H]1C(=O)N[C@@H](CO)C(N)=O
B2 was tested, and the “Activity against human GIPR (EC50 nM)” value [4] was 0.024 nM and the “Activity against human GCGR (EC50 nM)” value (human glucagon receptor [5]) was 0.552 nM.

H[Aib]HGTFTSDLSILLEK([AEEA-AEEA-γGlu-C20 diacid])KAA[Iva]EFVEWLLAGGPSSGAPPPS-NH2 [Compound No. 0136] was tested, and the “Activity against human GIPR (EC50 nM)” value [10] was 0.001 nM and the “Activity against human GCGR (EC50 nM)” value (human glucagon receptor [11]) was 0.039 nM.

B3: Compound No. 0151 (peptide)
peptide: H[Aib]HGTFTSDYSILLEK([AEEA-AEEA-γGlu-C20 diacid])KAAQEFVEWLLA[dE]GPSSGAPPPS-NH2
modifications: N-terminus assumed
SMILES: CC[C@H](C)[C@H](NC(=O)[C@H](CO)NC(=O)[C@H](Cc1ccc(O)cc1)NC(=O)[C@H](CC(=O)O)NC(=O)[C@H](CO)NC(=O)[C@@H](NC(=O)[C@H](Cc1ccccc1)NC(=O)[C@@H](NC(=O)CNC(=O)[C@H](Cc1c[nH]cn1)NC(=O)C(C)(C)NC(=O)[C@@H](N)Cc1c[nH]cn1)[C@@H](C)O)[C@@H](C)O)C(=O)N[C@@H](CC(C)C)C(=O)N[C@@H](CC(C)C)C(=O)N[C@@H](CCC(=O)O)C(=O)N[C@@H](CCCCNC(=O)COCCOCCNC(=O)COCCOCCNC(=O)CC[C@H](NC(=O)CCCCCCCCCCCCCCCCCCC(=O)O)C(=O)O)C(=O)N[C@@H](CCCCN)C(=O)N[C@@H](C)C(=O)N[C@@H](C)C(=O)N[C@@H](CCC(N)=O)C(=O)N[C@@H](CCC(=O)O)C(=O)N[C@@H](Cc1ccccc1)C(=O)N[C@H](C(=O)N[C@@H](CCC(=O)O)C(=O)N[C@@H](Cc1c[nH]c2ccccc12)C(=O)N[C@@H](CC(C)C)C(=O)N[C@@H](CC(C)C)C(=O)N[C@@H](C)C(=O)N[C@H](CCC(=O)O)C(=O)NCC(=O)N1CCC[C@H]1C(=O)N[C@@H](CO)C(=O)N[C@@H](CO)C(=O)NCC(=O)N[C@@H](C)C(=O)N1CCC[C@H]1C(=O)N1CCC[C@H]1C(=O)N1CCC[C@H]1C(=O)N[C@@H](CO)C(N)=O)C(C)C
With B3 the “Activity against human GIPR (EC50 nM)” value [1] was 0.004 nM, the “Activity against human GLP-1R (EC50 nM)” value [2] was 0.037 nM and the “Activity against human GCGR (EC50 nM)” value (human glucagon receptor [3]) was 0.055 nM.

In the case of H[Aib]HGTFTSDYSK[Aib]LEK([AEEA-AEEA-γGlu-C20 diacid])KAAQEFVEWLLAGGPSSGAPPPS-NH2 [Compound No. 0107], the “Activity against human GLP-1R (EC50 nM)” value [12] is reported as 0.016 nM and the “Activity against human GCGR (EC50 nM)” value (human glucagon receptor [13]) is reported as 0.274 nM.

For H[Aib]QGTFTSDYSI[αMeL]LEK([AEEA-AEEA-γGlu-C20 diacid])KAA[Aib]EFVEWLLAGGPSSGAPPPS-NH2 [Compound No. 0157], the “Activity against human GIPR (EC50 nM)” value [6] was 0.008 nM and the “Activity against human GCGR (EC50 nM)” value (human glucagon receptor [7]) was 1.33 nM.
